# Measurements published in patent publication US20210388087A1 (Chugai, published 2021).
# Where a chain is given by its changes, count along the chain named. In names and notes the source's numbering stands.
# T1: Human CD3eg linker (human)
# T1 construct: Single chain: epsilon and gamma subunits of human CD3 joined by a 29-mer linker, Flag-tag at the C-terminus; also called recombinant human CD3
# T1 chain: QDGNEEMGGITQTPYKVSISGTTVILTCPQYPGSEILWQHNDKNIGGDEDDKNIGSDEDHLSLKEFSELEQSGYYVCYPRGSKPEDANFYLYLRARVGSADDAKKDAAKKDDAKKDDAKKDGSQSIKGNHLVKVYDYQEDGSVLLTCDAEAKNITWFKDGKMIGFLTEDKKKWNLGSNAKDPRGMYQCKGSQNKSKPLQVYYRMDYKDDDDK
# B1: H183/L072 VH H35P (antibody, name in Kabat numbering, V domains shown)
# VH: QVQLVESGGGLVQPGRSLRLSCAASGFTFSNAWMPWVRQAPGKGLEWVAQIKDKGNAYAAYYAPSVKGRFTISRDDSKNSIYLQMNSLKTEDTAVYYCHYVHYASASTVLPAFGVDAWGQGTTVTVSS
# VL: DIVMTQSPLSLPVTPGEPASISCQASQELVHMNRNTYLHWYQQKPGQAPRLLIYKVSNRFPGVPDRFSGSGSGTDFTLKISRVEAEDVGVYYCAQGTSVPFTFGQGTKLEIK
# B2: H183/L072 VH I51A (antibody, name in Kabat numbering, V domains shown)
# VH: B1 VH with P35H, I51A
# VL: B1 VL
# B3: H183/L072 VH I51E (antibody, name in Kabat numbering, V domains shown)
# VH: B1 VH with P35H, I51E
# VL: B1 VL
# B4: H183/L072 VH H96A (antibody, name in Kabat numbering, V domains shown)
# VH: B1 VH with P35H, H102A
# VL: B1 VL
# B5: H183/L072 VH H93M (antibody, name in Kabat numbering, V domains shown)
# VH: B1 VH with P35H, H99M
# VL: B1 VL
# B6: H183/L072 VH H35Y (antibody, name in Kabat numbering, V domains shown)
# VH: B1 VH with P35Y
# VL: B1 VL
# B7: H183/L072 VH H93I (antibody, name in Kabat numbering, V domains shown)
# VH: B1 VH with P35H, H99I
# VL: B1 VL
# B8: H183/L072 VH I51L (antibody, name in Kabat numbering, V domains shown)
# VH: B1 VH with P35H, I51L
# VL: B1 VL
# B9: H183/L072 VH H93L (antibody, name in Kabat numbering, V domains shown)
# VH: B1 VH with P35H, H99L
# VL: B1 VL
# B10: H183/L072 VH I51G (antibody, name in Kabat numbering, V domains shown)
# VH: B1 VH with P35H, I51G
# VL: B1 VL
# B11: H183/L072 VH H35S (antibody, name in Kabat numbering, V domains shown)
# VH: B1 VH with P35S
# VL: B1 VL
# B12: H183/L072 VH I51K (antibody, name in Kabat numbering, V domains shown)
# VH: B1 VH with P35H, I51K
# VL: B1 VL
# B13: H183/L072 VH H96P (antibody, name in Kabat numbering, V domains shown)
# VH: B1 VH with P35H, H102P
# VL: B1 VL
# B14: H183/L072 VH H35R (antibody, name in Kabat numbering, V domains shown)
# VH: B1 VH with P35R
# VL: B1 VL
# B15: H183/L072 VH I51P (antibody, name in Kabat numbering, V domains shown)
# VH: B1 VH with P35H, I51P
# VL: B1 VL
# B16: H183/L072 VH I51D (antibody, name in Kabat numbering, V domains shown)
# VH: B1 VH with P35H, I51D
# VL: B1 VL
# B17: H183/L072 VH H96M (antibody, name in Kabat numbering, V domains shown)
# VH: B1 VH with P35H, H102M
# VL: B1 VL
# B18: H183/L072 VH I51N (antibody, name in Kabat numbering, V domains shown)
# VH: B1 VH with P35H, I51N
# VL: B1 VL
# B19: H183/L072 VH I51R (antibody, name in Kabat numbering, V domains shown)
# VH: B1 VH with P35H, I51R
# VL: B1 VL
# B20: H183/L072 VH H35Q (antibody, name in Kabat numbering, V domains shown)
# VH: B1 VH with P35Q
# VL: B1 VL
# B21: H183/L072 VH H93A (antibody, name in Kabat numbering, V domains shown)
# VH: B1 VH with P35H, H99A
# VL: B1 VL
# B22: H183/L072 VH H35V (antibody, name in Kabat numbering, V domains shown)
# VH: B1 VH with P35V
# VL: B1 VL
# B23: H183/L072 VH H35T (antibody, name in Kabat numbering, V domains shown)
# VH: B1 VH with P35T
# VL: B1 VL
# B24: H183/L072 VH I51H (antibody, name in Kabat numbering, V domains shown)
# VH: B1 VH with P35H, I51H
# VL: B1 VL
# B25: H183/L072 VH I51M (antibody, name in Kabat numbering, V domains shown)
# VH: B1 VH with P35H, I51M
# VL: B1 VL
# B26: H183/L072 VH I51Q (antibody, name in Kabat numbering, V domains shown)
# VH: B1 VH with P35H, I51Q
# VL: B1 VL
# B27: H183/L072 VH H96I (antibody, name in Kabat numbering, V domains shown)
# VH: B1 VH with P35H, H102I
# VL: B1 VL
# B28: H183/L072 VH H35W (antibody, name in Kabat numbering, V domains shown)
# VH: B1 VH with P35W
# VL: B1 VL
# B29: H183/L072 VH I51S (antibody, name in Kabat numbering, V domains shown)
# VH: B1 VH with P35H, I51S
# VL: B1 VL
# B30: H183/L072 VH H96L (antibody, name in Kabat numbering, V domains shown)
# VH: B1 VH with P35H, H102L
# VL: B1 VL
# B31: H183/L072 VH I51T (antibody, name in Kabat numbering, V domains shown)
# VH: B1 VH with P35H, I51T
# VL: B1 VL
# B32: H183/L072 VH I51F (antibody, name in Kabat numbering, V domains shown)
# VH: B1 VH with P35H, I51F
# VL: B1 VL
# B33: H183/L072 VH H93P (antibody, name in Kabat numbering, V domains shown)
# VH: B1 VH with P35H, H99P
# VL: B1 VL
# Biological target: T1, Human CD3eg linker
# Experiment: Biacore SPR, vs template H183/L072
row,Binder,fold change of affinity
1,B1,0 fold
2,B2,0 fold
3,B3,0 fold
4,B4,0.3 fold
5,B5,0 fold
6,B6,0 fold
7,B7,0 fold
8,B8,0 fold
9,B9,0 fold
10,B10,0 fold
11,B11,0.5 fold
12,B12,1 fold
13,B13,0 fold
14,B14,0 fold
15,B15,0 fold
16,B16,0 fold
17,B17,0.1 fold

row,Binder,fold change of affinity
1,B18,0 fold
2,B19,0 fold
3,B20,0 fold
4,B21,0 fold
5,B22,0 fold
6,B23,0 fold
7,B24,0 fold
8,B25,0.3 fold
9,B26,0 fold
10,B27,0 fold
11,B28,0 fold
12,B29,0.4 fold
13,B30,0 fold
14,B31,0.2 fold
15,B32,0 fold
16,B33,0 fold
